Test [1] addresses IL-13 receptor (IL-13R) on human tumor cells (human). The experiment in a line: cell-based or functional assay.
For test [2] the target is unchanged. As to the kind of experiment: displacement of [^125I]-IL-13 from HL-RCC cells.
For test [3] the target is unchanged. As to the kind of experiment: ^125I-hIL-13 displacement by unlabeled hIL-13 on U-373 MG glioma cells, LIGAND/Scatchard analysis.
Test [4] has the same target. As to the kind of experiment: ^125I-IL-13 displacement by unlabeled IL-13 on PM-RCC cells, LIGAND/Scatchard analysis.
Test [5] has the same target. As to the kind of experiment: ^125I-hIL-13 displacement by unlabeled hIL-13 on U-251 MG glioma cells, LIGAND/Scatchard analysis.
For test [6] the target is unchanged. The experiment in a line: ^125I-hIL-13 displacement by unlabeled hIL-13 on SNB-19 glioma cells, LIGAND/Scatchard analysis.
For test [7] the target is unchanged. The experiment in a line: displacement of ^125I-IL-13 from WS-RCC and HL-RCC cells by excess unlabeled IL-13.
Test [8] has the same target. The experiment in a line: ^125I-IL-13 displacement by unlabeled IL-13 on HL-RCC cells, LIGAND/Scatchard analysis.
The target is the same in test [9]. As to the kind of experiment: ^125I-IL-13 displacement by unlabeled IL-13 on WS-RCC cells, LIGAND/Scatchard analysis.
Test [10] shares this target. The experiment in a line: ^125I-IL-13 displacement by unlabeled IL-13 on MA-RCC cells, LIGAND/Scatchard analysis.
For test [11] the target is unchanged. The experiment in a line: ^125I-hIL-13 displacement by unlabeled hIL-13 on T-98G glioma cells, LIGAND/Scatchard analysis.
For test [12] the target is unchanged. As to the kind of experiment: radioligand (0.64 nM) binding to PM-RCC cells, 4 C, 2 h.
Test [13] shares this target. As to the kind of experiment: ^125I-hIL-13 displacement by unlabeled hIL-13 on A-172 glioma cells, LIGAND/Scatchard analysis.

This is an account of results in patent US6518061.

Sequence of IL-13 receptor (IL-13R) on human tumor cells (human) (Q14627 whole entry): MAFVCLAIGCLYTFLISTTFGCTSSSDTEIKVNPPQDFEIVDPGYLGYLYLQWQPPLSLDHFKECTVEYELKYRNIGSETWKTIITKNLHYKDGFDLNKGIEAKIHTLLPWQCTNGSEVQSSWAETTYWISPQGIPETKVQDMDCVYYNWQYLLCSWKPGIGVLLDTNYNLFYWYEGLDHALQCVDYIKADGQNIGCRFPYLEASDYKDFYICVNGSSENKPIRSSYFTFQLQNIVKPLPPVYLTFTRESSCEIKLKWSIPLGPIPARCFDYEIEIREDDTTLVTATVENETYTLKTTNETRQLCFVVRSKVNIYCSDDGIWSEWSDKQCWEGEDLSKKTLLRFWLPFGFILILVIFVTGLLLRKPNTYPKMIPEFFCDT

In the case of “hIL-13-PE4E (from UniProt P35225 33-146; P11439 26-638)”, in [1], the IC50, cytotoxicity on several glioma cell lines is < 0.1 ng/mL.

Consider “recombinant human interleukin 13 (IL-13) (from UniProt P35225 33-146) (ligand)”, for which, in test [2], the IC50 (usually the concentration that gives 50% inhibition) worked out at 20 nM. Besides, the Kd (as a rule, a measure of binding affinity in units of concentration) amounted to 1.8 nM in test [3]; 0.394 nM in test [4]; 2.1 nM in [5]; 1.4 nM in test [6]; 3.1 nM in [8]; 0.247 nM in test [9]. The Kd in test [10] worked out at 0.128 nM; in test [11], 1 nM; in test [13], 1.6 nM. The substance also had a % displacement of total binding in test [7] of 85%. The substance further registered a cpm specifically bound in test [12] of 182000 cpm.
